Assays:
[1] = molecular target: T1, aster yellows witches'-broom phytoplasma SAP05 (AYWB_SAP05), mature, 33-135 (Aster Yellows phytoplasma strain …, UniProt Q2NK94 33-135); assay: SPR
T1 chain: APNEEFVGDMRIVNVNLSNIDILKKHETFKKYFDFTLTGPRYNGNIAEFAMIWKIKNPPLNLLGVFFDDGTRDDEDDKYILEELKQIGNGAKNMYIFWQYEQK

[2] = molecular target: V-shape-GSGS-C-ter peptide (fused V-shape and C-ter peptide of SAP05, linked by the GSGS linker) (UniProt Q2NK94); assay: SPR

B1: GST-tagged homo sapiens Rpn10 (hRpn10) vWA (1-193aa) (domain or fragment)
chain: MVLESTMVCVDNSEYMRNGDFLPTRLQAQQDAVNIVCHSKTRSNPENNVGLITLANDCEVLTTLTPDTGRILSKLHTVQPKGKITFCTGIRVAHLALKHRQGKNHKMRIIAFVGSPVEDNEKDLVKLAKRLKKEKVNVDIINFGEEEVNTEKLTAFVNTLNGKDGTGSHLVTVPPGPSLADALISSPILAGEG
Q: B1 was tested. Which Kd [1] did it give?
A: ~149 µM

B2: GST-tagged A. thaliana Rpn10 (AtRpn10) vWA domain (domain or fragment)
chain: VLEATMICIDNSEWMRNGDYSPSRLQAQTEAVNLLCGAKTQSNPENTVGILTMAGKGVRVLTTPTSDLGKILACMHGLDVGGEINLTAAIQIAQLALKHRQNKNQRQRIIVFAGSPIKYEKKALEIVGKRLKKNSVSLDIVNFGEDDDEEKPQKLEALLTAVNNNDGSHIVHVPSGANALSDVLLSTPVFTG
Q: How did the koff [2] turn out when B2 was run?
A: 0.0115 s⁻¹

— article doi:10.1101/2023.08.24.554544 (2023)
